For experiment [1], the target named is T1, TR7-Fc fusion protein (Ala-Asp-Pro fused to E52-G184 of TR7, SEQ ID NO:3, fused to the Fc region) (human, UniProt O14763 52-184).
T1 construct: Expressed in baculovirus with the GP signal peptide; it is read as TR7; also called TR7-Fc receptor; TRAILR2; not shown: Fc region
Nature of the experiment: competition ELISA: inhibition of biotinylated TRAIL binding to TR7-Fc captured on anti-human Fc. As for the experimental part:
Goat anti-human Fc is diluted to 0.1 micrograms/ml in coating buffer. An Immulon 4 microplate is coated with 100 microliters per well of the Goat anti-human Fc solution and incubated overnight at 4° C. The coating solution is decanted from the plate, and blocking solution is dispensed at 200 microliters per well. The plate is incubated at room temperature for 1 hour. After the 1 hour incubation period, the blocking solution is decanted from the plate and 1 microgram/mL of TR7-Fc is dispensed at 100 microliters/well and incubated for 2 hours at room temperature. After the incubation, the plate is washed five times manually using a Wheaton manifold.
Antibodies corresponding to scFvs of the present invention are (previously) prepared in a low binding dilution plate using diluent. The antibodies are prepared in duplicate and are diluted from the stock concentration with 2.5 fold dilutions for the 7 subsequent wells. If a purified form of the antibody is available, the starting concentration is 5 micrograms/mL. The positive control (TR7-Fc) is diluted from 5 micrograms/mL. 100 microliters is transferred into the ELISA plate and pre-incubated for 30 minutes at room temperature. […]
After the one-hour incubation, the plate is decanted and washed with PBST five times and blotted. […] The plate is immediately read at 450 nm using the spectrometer from Molecular Devices.

Experiment [2] deals with T1, TR7-Fc fusion protein (Ala-Asp-Pro …). The experiment can be described thus: SPR (BIAcore 2000), TR7-Fc amine-coupled to CM5 chip, antibody as analyte, separate fitting of the dissociation phase. On the procedure:
(§1) TR7-Fc and TR2-Fc were immobilized on individual flow cells of a BIAcore CM5 sensor chip (BIAcore, Cat# BR-1000-14). Amine coupling (BIAcore, Cat# BR-1000-50) was used to covalently bind each receptor to the dextran matrix on the sensor chip. The optimal pH for this coupling was analyzed using preconcentration experiments ranging from pH 4-7 and was determined to be pH 4.0 based on the slope of the binding. The actual coupling was performed using the manual injection mode. A target level of 200 relative units (RU) was set as the goal for both flow cells. A response of 1000 RU correlates to a change in surface concentration of about 1 ng/mm² for proteins. The molecular weight of the TR7 and TR2 fusion proteins was nearly identical. The concentration of both receptors for immobilization was 5 μg/ml in 10 mM acetate, pH 4.0 (BIAcore, Cat# BR-1003-49). The entire experiment was performed at a flow rate of 5 μL/min. Contact time for the N-ethyl-N′-(3-dimethylaminoprolpyl)carbodiimide hydrochloride/Ethanolamine hydrochloride-NaOH, pH 8.5 (EDC/NHS) injection was 3 minutes. […]
(§2) Analysis of CM005G08 kinetics was performed using the BIAcore 2000 instrument with the 2000 control software, version 3.1.1. […] The off rate of CM005G08 was determined by washing the complex in the presence of HBS-EP buffer for 10 minutes. […]
(§3) The binding data were analyzed using the BIAevaluation software, version 3.1. […]

Experiment [3] has the same target. The experiment can be described thus: SPR (BIAcore 2000), TR7-Fc amine-coupled to CM5 chip, antibody as analyte, 1:1 Langmuir model, double-reference subtraction, mean±STD of three experiments. As for the experimental part: as §1, §2, §3

Where “and” joins values, the source holds several entries; their conditions need not be identical. Equal values may be shown once.

B1: CM005G08 whole IgG1 antibody comprising the VH and VL domains of the CM005G08 scFv (antibody, V domains shown)
VH: EVQLVQSGGGVERPGGSLRLSCAASGFTFDDYGMSWVRQAPGKGLEWVSGINWNGGSTGYADSVKGRVTISRDNAKNSLYLQMNSLRAEDTAVYYCAKILGAGRGWYFDLWGKGTTVTVSS
VL: SSELTQDPAVSVALGQTVRITCQGDSLRSYYASWYQQKPGQAPVLVIYGKNNRPSGIPDRFSGSSSGNTASLTITGAQAEDEADYYCNSRDSSGNHVVFGGGTKLTVLG
notes: Two lots were tested; also called CM05G08; IgG1 format of CM005G08
Take B1: the IC50 in experiment [1] is 5.3 nM and 6.89 nM. Moreover, the koff in experiment [2] was 0.00266 s⁻¹ and 0.00268 s⁻¹. In addition, in experiment [3], the Kd is 0.25 nM and 0.33 nM.

For the origin of these results see patent publication US20050214207A1 (published 2005).
